T1: cynomolgus monkey PVRIG expressed on cells (cynomolgus monkey, UniProt A0A2K5WVV8 1-322)
T1 construct: whole, on cells; also called Monkey PVRIG FACS; cells overexpressing cynomolgus monkey PVRIG
T1 sequence: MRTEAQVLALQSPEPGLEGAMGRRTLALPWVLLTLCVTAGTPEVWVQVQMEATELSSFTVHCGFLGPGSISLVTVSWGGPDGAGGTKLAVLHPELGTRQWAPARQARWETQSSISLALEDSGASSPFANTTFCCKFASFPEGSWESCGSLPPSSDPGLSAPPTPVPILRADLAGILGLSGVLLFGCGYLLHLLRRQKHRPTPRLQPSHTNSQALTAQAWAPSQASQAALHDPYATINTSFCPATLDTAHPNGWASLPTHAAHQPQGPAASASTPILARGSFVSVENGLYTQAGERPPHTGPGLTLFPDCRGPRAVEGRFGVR

T2: human PVRIG expressed on cells (human, UniProt Q6DKI7 41-326)
T2 construct: whole, on cells; also called Human PVRIG FACS; cells overexpressing human PVRIG
T2 sequence (looked up): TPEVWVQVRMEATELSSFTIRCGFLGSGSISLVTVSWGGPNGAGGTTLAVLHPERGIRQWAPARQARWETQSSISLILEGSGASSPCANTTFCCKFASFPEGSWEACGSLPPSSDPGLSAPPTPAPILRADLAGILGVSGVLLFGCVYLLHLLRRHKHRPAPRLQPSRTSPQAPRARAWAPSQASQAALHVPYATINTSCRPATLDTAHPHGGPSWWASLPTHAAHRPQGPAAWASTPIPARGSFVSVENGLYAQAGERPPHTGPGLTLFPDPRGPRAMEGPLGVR

T3: mouse IgG2a Fc-tagged human PVRIG (h-PVRIG-mIgG2a Fc) recombinant protein (human, UniProt Q6DKI7 41-171, limits assumed)
T3 construct: bought from Acrobiosystems; not shown: mouse IgG2a Fc tag
T3 sequence (looked up): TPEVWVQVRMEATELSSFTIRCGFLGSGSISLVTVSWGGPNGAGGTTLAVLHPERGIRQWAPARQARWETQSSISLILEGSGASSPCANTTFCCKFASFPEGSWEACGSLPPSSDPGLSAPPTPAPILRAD

B1: anti-PVRIG antibody 151 (antibody, human IgG4 S228P, F234A L235A, V domains shown)
VH: HVQLVESGGGSVQAGGSLRLSCVASASGFTYRPYCMAWFRQAPGKEREAVAGIDIFGGTTYADSVKGRFTASRDNAGFSLFLQMNDLKPEDTAMYYCAAGDSPDGRCPPLGQGLNYWGQGTQVTVSS
notes: no light chain
B2: anti-PVRIG antibody 39 (antibody, human IgG4 S228P, F234A L235A, V domains shown)
VH: QVQLVESGGGSVQAGGSLRLSCAASRYTSRTDCMGWFRQAPGKEREGVAHIDSDGIPRYVESVKGRFTISQDHAKNTLYLQMNSLKPEDSATYYCVVGFKFGDYCAPNDWGQGTQVTVSS
notes: no light chain
B3: anti-PVRIG antibody 30 (antibody, human IgG4 S228P, F234A L235A, V domains shown)
VH: HVQLVESGGGSVQAGGSLRLSCEASGYSYSGDCMGWFRRAPGKERDEGVATIDNAGRIKYADSVKGRFTISHGNGKYILYLQMNSLKPEDTDMYYCAAGWTFGGNCSPADWGQGTQVTVSS
notes: no light chain
B4: positive antibody Tab5 (antibody, human IgG4 S228P, kappa, F234A L235A, V domains shown)
VH: EVQLVESGGGVVKPGGSLRLSCAASGFTFGTSSMNWVRQAPGKGLEWVAVISFDGTEIHYADSVKGRFTISRDNSKSTVFLQMNSLRPDDTALYYCAKGSGNIYFYSGMDVWGQGTTVTVSS
VL: DIQMTQSPSTLSASVGDRVTITCRAGQSISGWLAWFQQKPGKAPNLLIYETSTLESGVPSRFSGSGSGTEYTLTISSLQPDDFATYYCQQYYSYPLTFGQGTKVEIKR
notes: Variable regions of CPA.7.021 (WO2016134333A1) on human IgG4 (S228P/F234A/L235A/K447A) and human kappa constant regions
B5: anti-PVRIG antibody 38 (antibody, human IgG4 S228P, F234A L235A, V domains shown)
VH: QVQLVESGGGSVQAGGSLRLSCAASPSTYGPSDMAWFRQAPGKQREGVATISAAGRLTYYTDSVRGRFTISRDNAKNTMYLQMNSLKPEDTAMYYCAADFAGGSSLFADYKYWGQGTQVTVSS
notes: no light chain
B6: humanized anti-PVRIG/TIGIT bispecific antibody 1708-20H5 (bispecific antibody, human IgG4 S228P, kappa)
heavy: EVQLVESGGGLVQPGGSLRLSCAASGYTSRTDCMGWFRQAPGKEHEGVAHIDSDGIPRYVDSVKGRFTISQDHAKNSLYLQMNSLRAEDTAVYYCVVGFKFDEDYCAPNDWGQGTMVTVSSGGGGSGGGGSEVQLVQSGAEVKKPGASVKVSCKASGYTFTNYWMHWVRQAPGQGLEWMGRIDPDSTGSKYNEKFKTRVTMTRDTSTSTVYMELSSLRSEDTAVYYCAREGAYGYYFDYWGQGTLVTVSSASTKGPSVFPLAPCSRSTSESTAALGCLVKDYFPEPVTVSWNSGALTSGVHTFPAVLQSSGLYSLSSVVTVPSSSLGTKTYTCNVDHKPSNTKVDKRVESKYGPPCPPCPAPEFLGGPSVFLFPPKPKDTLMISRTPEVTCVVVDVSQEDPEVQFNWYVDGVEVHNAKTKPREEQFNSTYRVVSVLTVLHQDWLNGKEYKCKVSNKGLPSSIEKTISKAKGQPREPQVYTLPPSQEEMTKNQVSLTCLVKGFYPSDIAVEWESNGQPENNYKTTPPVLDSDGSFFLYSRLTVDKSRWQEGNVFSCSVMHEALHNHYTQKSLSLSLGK
light: DIQMTQSPSSLSASVGDRVTITCRASENIYSYLAWYQQKPGKSPKLLIYNARTLAEGVPSRFSGSGSGTDFTLTISSLQPEDFATYYCQYHSGSPLPFGGGTKVEIKRTVAAPSVFIFPPSDEQLKSGTASVVCLLNNFYPREAKVQWKVDNALQSGNSQESVTEQDSKDSTYSLSSTLTLSKADYEKHKVYACEVTHQGLSSPVTKSFNRGEC
B7: humanized anti-PVRIG/TIGIT bispecific antibody 1708-30H2 (bispecific antibody, human IgG4 S228P, kappa)
heavy: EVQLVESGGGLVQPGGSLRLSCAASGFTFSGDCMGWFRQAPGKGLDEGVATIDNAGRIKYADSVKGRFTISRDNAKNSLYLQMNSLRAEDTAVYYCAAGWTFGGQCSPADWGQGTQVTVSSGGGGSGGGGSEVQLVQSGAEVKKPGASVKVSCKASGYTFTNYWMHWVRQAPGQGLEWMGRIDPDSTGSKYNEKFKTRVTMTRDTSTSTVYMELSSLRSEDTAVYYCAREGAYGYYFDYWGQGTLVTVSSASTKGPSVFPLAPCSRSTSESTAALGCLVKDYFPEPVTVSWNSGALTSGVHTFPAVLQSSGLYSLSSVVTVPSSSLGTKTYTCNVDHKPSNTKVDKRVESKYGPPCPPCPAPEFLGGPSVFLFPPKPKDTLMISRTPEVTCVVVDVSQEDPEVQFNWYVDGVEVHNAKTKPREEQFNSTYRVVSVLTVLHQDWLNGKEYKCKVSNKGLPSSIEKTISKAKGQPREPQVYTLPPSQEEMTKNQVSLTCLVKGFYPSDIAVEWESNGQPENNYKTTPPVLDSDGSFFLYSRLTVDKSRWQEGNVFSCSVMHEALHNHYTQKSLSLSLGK
light: B6 light

Columns and labels:
[1] = target: T1, cynomolgus monkey PVRIG expressed on …; experiment: FACS, HEK293 cells overexpressing target
Description: (§1) A flow cytometer (FACS) was used to detect binding properties of anti-PVRIG antibodies. A cell strain overexpressing human or cynomolgus monkey PVRIG was constructed, and after the addition of the antibody, the activity of the binding of the antibody to the antigen was detected by the addition of a secondary antibody.
(§2) The expression plasmid carrying human or cynomolgus monkey PVRIG gene sequence was transfected into HEK293 cells, and the over-expressing stable transfection monoclonal cell strain was obtained by antibiotic screening and infinite dilution. Overexpressing cells were seeded into a 96-well plate at 2×10⁵ cells/per well. The cells were centrifuged at 300 g for 5 min, the supernatant was then removed, 100 μL of the test antibody was added, and the mixture was incubated at 4° C. for 1 h. The mixture was centrifuged, the supernatant was removed, the plate was washed 3 times with 200 μL of wash buffer (PBS+2% FBS), and then 100 μL of an anti-human IgG secondary antibody (Invitrogen, A-11013) labeled with Alexa Fluor 488 diluted at 1:500 was added. The mixture was incubated at 4° C. for 1 h. The plate was centrifuged, and the supernatant was removed. The plate was washed 3 times with 200 μL of wash buffer (PBS+2% FBS). The cells were resuspended in 100 μL of PBS and tested on a flow cytometer (BD FACS Calibur or BD FACS Canto_II).

[2] = target: T2, human PVRIG expressed on cells; experiment: FACS, HEK293 cells overexpressing target
Description: as §1, §2

[3] = target: T2, human PVRIG expressed on cells; experiment: cell-based or functional assay
[4] = target: T2, human PVRIG expressed on cells; experiment: cell-based or functional assay; remark: listed apart in the source
[5] = target: T3, mouse IgG2a Fc-tagged human PVRIG …; experiment: competition ELISA; coated h-PVRIG-mIgG2a Fc, competitor his-PVRL2
Procedure: In this experiment, by in vitro blocking experiment, the ability of the selected anti-PVRIG antibodies to block the binding of human PVRIG to its ligand human PVRL2 was detected. Specifically, a mouse IgG2a Fc-tagged human PVRIG recombinant protein (h-PVRIG-mIgG2a Fc) was coated on a 96-well microplate, an anti-PVRIG antibody was added to fully bind to and occupy an epitope, then his-tagged PVRL2 (PV2-H52E2, AcroBiosystem) was added, and the binding amount of PVRIG and PVRL2 was calculated by detecting the his tag. The IC₅₀ value of the anti-PVRIG antibody for blocking the PVRIG active site was calculated.
(§3) The h-PVRIG-mIgG2a Fc protein (at a concentration of 1 μg/mL) was coated on the 96-well microplate at 100 μL per well, and incubated overnight at 4° C. The plate was washed three times with wash buffer at 250 μL per well. For each wash, the plate was shaken for 10 s to ensure adequate cleaning. A blocking solution was added at 300 μL/well, and the plate was incubated at room temperature for 1 h. The plate was washed three times with wash buffer at 250 μL per well. For each wash, the plate was shaken for 10 s to ensure adequate cleaning. 50 μL of diluted test anti-PVRIG antibody and 50 μL of his-tagged ligand PVRL2 were added to each well, and the plate was incubated at 37° C. for 1 h. The plate was washed three times with wash buffer at 250 μL per well. The HRP-labeled anti-his-tagged secondary antibody (Genscrpit) diluted at 1:2000 was added at 100 μL per well. The plate was incubated at 37° C. for 1 h. The plate was washed three times with wash buffer at 250 μL per well. TMB was added at 100 μL/well, and the plate was incubated in the dark for 15 min. 0.16 M sulfuric acid was added at 50 μL/well. OD values at 450 nm were measured using a Thermo MμtLtiSkanFc microplate reader, and the IC₅₀ values of the anti-PVRIG antibodies blocking the binding of PVRIG to PVRL2 were calculated.

[6] = target: T2, human PVRIG expressed on cells; experiment: cell-based or functional assay; remark: listed apart in the source
[7] = target: T3, mouse IgG2a Fc-tagged human PVRIG …; experiment: competition ELISA; human PVRIG coated, competitor human PVRL2
Procedure: as §3
Binding of the humanized anti-PVRIG/TIGIT bispecific antibodies to human and cynomolgus monkey PVRIG and their blocking of the ligand of human PVRIG were detected according to the methods of Examples 4, 5 and 6.

[8] = target: T1, cynomolgus monkey PVRIG expressed on …; experiment: FACS, cells overexpressing target

| Binder | EC50 [1] | EC50 [2] | PVRIG reporter gene cell activity EC50 [3] | NK92 killing of K562, killing activity (%), 4 nM antibody [4] | NK92 killing of K562, killing activity (%), 20 nM antibody [4] | NK92 killing of K562, killing activity (%), 100 nM antibody [4] | IC50 [5] | reporter gene activity, fold of the positive antibody Tab5 [6] | binding result [1] | IC50 [7] | EC50 [8] |
| --- | --- | --- | --- | --- | --- | --- | --- | --- | --- | --- | --- |
| B1 | 2.23 nM | 0.01 nM | 0.04 nM | 20.9% | 22.9% | 24.2% | 0.37 nM | 3.7 to 18.5 fold |  |  |  |
| B2 | 6.97 nM | 0.004 nM | 0.06 nM | 21.3% | 22.7% | 22.8% | 0.76 nM |  |  |  |  |
| B3 | 0.02 nM |  | 0.06 nM |  |  |  | 1.11 nM |  |  |  |  |
| B4 |  | 2.13 nM | 0.74 nM |  |  |  | 1.16 nM |  | no binding | 0.964 nM |  |
| B5 | 0.34 nM | 0.24 nM | 0.2 nM |  |  |  | 0.93 nM | 3.7 to 18.5 fold |  |  |  |
| B6 |  |  |  |  |  |  |  |  |  | 0.628 nM | 0.07 nM |
| B7 |  |  |  |  |  |  |  |  |  | 0.552 nM | 3.54 nM |
